# Results from IntAct's records for PubMed 17290217.
# B1: Phosphatidylinositol 4-phosphate 5-kinase type-1 gamma (Mus musculus), O70161 (parent)
# chain: MELEVPDEAESAEAGAVTAEAAWSAESGAAAGMTQKKAGLAEAPLVTGQPGPGHGKKLGHRGVDASGETTYKKTTSSTLKGAIQLGIGYTVGNLSSKPERDVLMQDFYVVESIFFPSEGSNLTPAHHFQDFRFKTYAPVAFRYFRELFGIRPDDYLYSLCNEPLIELSNPGASGSVFYVTSDDEFIIKTVMHKEAEFLQKLLPGYYMNLNQNPRTLLPKFYGLYCVQSGGKNIRVVVMNNVLPRVVKMHLKFDLKGSTYKRRASKKEKEKSLPTYKDLDFMQDMPEGLLLDSDTFGALVKTLQRDCLVLESFKIMDYSLLLGVHNIDQQERERQAEGAQSKADEKRPVAQKALYSTAMESIQGGAARGEAIETDDTMGGIPAVNGRGERLLLHIGIIDILQSYRFIKKLEHTWKALVHDGDTVSVHRPSFYAERFFKFMSSTVFRKSSSLKSSPSKKGRGALLAVKPLGPTAAFSASQIPSEREDVQYDLRGARSYPTLEDEGRPDLLPCTPPSFEEATTASIATTLSSTSLSIPERSPSDTSEQPRYRRRTQSSGQDGRPQEEPHAEDLQKITVQVEPVCGVGVVPKEEGAGVEVPPCGASAAASVEIDAASQASEPASQASDEEDAPSTDIYFPTDERSWVYSPLHYSARPASDGESDT
# Variants of: B1
# Conditions: with Ap2b1, Q9DBG3-1
# Chain of Ap2b1, Q9DBG3-1 (Q9DBG3 whole entry): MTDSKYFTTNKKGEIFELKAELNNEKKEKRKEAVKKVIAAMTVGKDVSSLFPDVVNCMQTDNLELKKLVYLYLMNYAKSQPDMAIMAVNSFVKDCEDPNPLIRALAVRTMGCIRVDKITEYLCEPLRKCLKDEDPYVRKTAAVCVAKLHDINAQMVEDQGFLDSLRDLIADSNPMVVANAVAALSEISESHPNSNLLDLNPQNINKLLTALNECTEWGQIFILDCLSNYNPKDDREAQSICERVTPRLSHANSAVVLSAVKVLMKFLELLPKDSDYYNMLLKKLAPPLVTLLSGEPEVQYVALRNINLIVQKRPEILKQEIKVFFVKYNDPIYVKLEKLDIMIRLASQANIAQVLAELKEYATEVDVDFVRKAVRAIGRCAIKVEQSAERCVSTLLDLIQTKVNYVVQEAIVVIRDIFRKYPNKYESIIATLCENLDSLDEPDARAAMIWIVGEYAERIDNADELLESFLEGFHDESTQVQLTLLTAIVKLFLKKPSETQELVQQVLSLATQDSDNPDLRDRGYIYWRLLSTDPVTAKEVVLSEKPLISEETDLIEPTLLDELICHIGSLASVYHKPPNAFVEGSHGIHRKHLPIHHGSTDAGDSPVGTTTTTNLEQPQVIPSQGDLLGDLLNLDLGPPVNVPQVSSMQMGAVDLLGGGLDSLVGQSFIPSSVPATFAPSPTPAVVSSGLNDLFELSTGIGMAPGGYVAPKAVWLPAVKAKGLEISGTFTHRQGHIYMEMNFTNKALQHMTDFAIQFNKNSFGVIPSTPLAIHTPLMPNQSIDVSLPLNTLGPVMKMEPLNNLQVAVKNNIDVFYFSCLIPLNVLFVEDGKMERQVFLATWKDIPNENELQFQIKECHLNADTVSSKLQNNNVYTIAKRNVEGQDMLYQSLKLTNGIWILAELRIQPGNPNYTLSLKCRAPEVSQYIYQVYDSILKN
row,Variant,effect of a mutation on the interaction
1,D277A,disrupting interaction

# Variants of: B1
# Conditions: with Ap2b1, Q9DBG3-2
# Chain of Ap2b1, Q9DBG3-2 (Q9DBG3 other isoform, or with tags, fused parts or gaps): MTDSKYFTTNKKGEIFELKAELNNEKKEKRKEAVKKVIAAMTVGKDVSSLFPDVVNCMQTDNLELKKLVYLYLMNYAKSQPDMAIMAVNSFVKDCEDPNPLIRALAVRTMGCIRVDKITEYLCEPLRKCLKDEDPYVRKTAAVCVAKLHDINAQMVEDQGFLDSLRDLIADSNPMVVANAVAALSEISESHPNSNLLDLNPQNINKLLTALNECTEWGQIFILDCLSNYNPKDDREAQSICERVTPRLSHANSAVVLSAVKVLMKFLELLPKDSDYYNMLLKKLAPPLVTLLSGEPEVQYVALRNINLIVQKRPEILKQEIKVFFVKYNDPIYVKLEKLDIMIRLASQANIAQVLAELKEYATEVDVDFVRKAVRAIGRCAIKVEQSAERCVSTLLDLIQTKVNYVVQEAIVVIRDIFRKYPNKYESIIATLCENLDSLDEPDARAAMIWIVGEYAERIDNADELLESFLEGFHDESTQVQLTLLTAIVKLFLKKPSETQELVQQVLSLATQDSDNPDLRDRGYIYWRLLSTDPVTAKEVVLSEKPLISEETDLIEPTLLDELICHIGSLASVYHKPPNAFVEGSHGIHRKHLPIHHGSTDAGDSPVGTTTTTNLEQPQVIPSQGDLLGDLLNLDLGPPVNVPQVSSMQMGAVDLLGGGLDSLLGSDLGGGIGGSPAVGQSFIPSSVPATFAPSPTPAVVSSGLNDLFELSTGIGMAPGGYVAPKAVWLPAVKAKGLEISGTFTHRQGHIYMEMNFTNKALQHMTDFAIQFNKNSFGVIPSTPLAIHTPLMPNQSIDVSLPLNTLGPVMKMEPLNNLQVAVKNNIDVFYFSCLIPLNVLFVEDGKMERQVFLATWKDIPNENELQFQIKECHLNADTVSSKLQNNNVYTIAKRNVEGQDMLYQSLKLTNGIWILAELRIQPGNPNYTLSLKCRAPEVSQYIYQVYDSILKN
row,Variant,effect of a mutation on the interaction
1,S645E,disrupting interaction

# Variants of: B1
# Conditions: with Ap2b1, Q9DBG3-1
# Remark: another data set of the same source
row,Variant,effect of a mutation on the interaction
1,S645E,disrupting interaction
